According to article PMC7095019 (Nature, 2012):
Positions count from the first letter of the chain named.

B1: CR6261 germline variant sCDR H2/sCDR H3, soluble IgG (antibody, V domains shown)
VH: QVQLVQSGAEVKKPGSSVKVSCKASGGTFSSYAISWVRQAPGQGLEWMGGIIPIFGTTKYAPKFQGRVTITADESTSTAYMELSSLRSEDTAVYYCAKHMGYQVRETMDVWGKGTTVTVSS
VL: QSVLTQPPSVSAAPGQKVTISCSGSSSNIGNNYVSWYQQLPGTAPKLLIYDNNKRPSGIPDRFSGSKSGTSATLGITGLQTGDEADYYCGTWDSSLSAYVVFGGGTKLTVL
B2: CR6261 germline variant sFR3/sCDR H3, soluble IgG (antibody, V domains shown)
VH: B1 VH with T58A, K59N, P62Q, E74D, S75F, T76A, S77G, A79V
VL: B1 VL
B3: CR6261 germline variant sCDR H1/sCDR H2/sFR3, soluble IgG (antibody, V domains shown)
VH: B1 VH with T28P, S30R, E74D, S75F, T76A, S77G, A79V, V104L
VL: B1 VL
B4: CR6261 germline variant sCDR H1, soluble IgG (antibody, V domains shown)
VH: B1 VH with T28P, S30R, T58A, K59N, P62Q, V104L
VL: B1 VL
B5: CR6261 germline variant sCDR H2, soluble IgG (antibody, V domains shown)
VH: B1 VH with V104L
VL: B1 VL
B6: CR6261 germline variant sCDR H3, soluble IgG (antibody, V domains shown)
VH: B1 VH with T58A, K59N, P62Q
VL: B1 VL
B7: CR6261 germline variant sCDR H1/sCDR H2, soluble IgG (antibody, V domains shown)
VH: B1 VH with T28P, S30R, V104L
VL: B1 VL
B8: CR6261 germline variant sCDR H1/sFR3, soluble IgG (antibody, V domains shown)
VH: QVQLVQSGAEVKKPGSSVKVSCKASGGPFRSYAISWVRQAPGQGLEWMGGIIPIFGTANYAQKFQGRVTITADDFAGTVYMELSSLRSEDTAVYYCAKHMGYQLRETMDVWGKGTTVTVSS
VL: B1 VL

Target: H1 A/New Caledonia/20/1999 haemagglutinin, wild-type trimeric protein (Influenza A virus A/New …, UniProt Q6WG00, strain)
Assay: ELISA

Binder	ELISA endpoint dilution titre	binding result
B1	0.15 µg/mL	–
B2	> 100 µg/mL	no binding (tested: >100 µg ml^-1)
B3	0.00133 µg/mL	–
B4	0.15 µg/mL	–
B5	> 100 µg/mL	no binding (tested: >100 µg ml^-1)
B6	> 100 µg/mL	no binding (tested: >100 µg ml^-1)
B7	0.15 µg/mL	–
B8	0.00133 µg/mL	–
